Experimental data as given in PMC5622040 (Nature Communications, 2017).

Target: the molecule itself
Assay: solid-state NMR of amyloid fibrils

B1: Syrian hamster PrP23-144 (domain or fragment)
chain: KKRPKPGGWNTGGSRYPGQGSPGGNRYPPQGGGTWGQPHGGGWGQPHGGGWGQPHGGGWGQPHGGGWGQGGGTHNQWNKPSKPKTNMKHMAGAAAAGAVVGGLGGYMLGSAMSRPMMHFGND
  binding result: binds
